The target in the experiment is C5b-8 complex (human, UniProt P01031 752-1676; P01031 19-673; P13671 22-934; P10643 23-843; P07357 31-584; …). Briefly: negative-stain electron microscopy.

B1: C9 (natural protein)
chain: not shown
With B1, the binding result was “binds”.

The record behind these values is article PMC2185789 (The Journal of Experimental Medicine, 1980).
